According to US6489299B2, “Methods for treatment of multiple sclerosis using peptide analogues at position 91 of human myelin basic protein” (Stanford University Medical Center, priority 1994, dated 2002):

What was measured:
EAE = conditions: rat, in vivo
Method: In addition, as a safety measure, but not essential to this invention, suitable peptide analogues may be tested for direct induction of EAE. As described in detail in Example 2, various amounts of peptide analogues are injected at the base of the tail of rats, and the rats examined daily for signs of EAE. A peptide analogue which is not considered to cause EAE has a mean cumulative score of less than or equal to 1 over seven days when 1 mg (5 mg/kg) in complete Freund's adjuvant is injected.
MBP peptides and analogues were dissolved in phosphate-buffered saline (PBS) and emulsified with an equal volume of incomplete Freund's adjuvant supplemented with 4 mg/ml heat-killed Mycobacterium tuberculosis H37Ra in oil (Difco Laboratories, Inc., Detroit, Mich.). Rats were immunized subcutaneously in the hind foot pads with 0.1 ml of the emulsion and were monitored for clinical signs daily by an observer blind to the treatment protocol. For intravenous injections MBP peptides and analogues were dissolved in normal saline. EAE was scored as follows: 0, clinically normal; 1, flaccid tail; 2, hind limb paralysis; 3, front and hind limb paralysis.
The ability of peptide analogues to cause EAE is assessed in vivo. Rats were injected with MBP (87-99) or (91K>A) peptide analogue as described in Example 2. Animals were monitored daily for evidence of EAE. Rats receiving MBP (87-99) had 100% incidence (18/18 rats) of EAE with a mean maximum clinical score of 2.4±0.2. In contrast, 0/12 rats receiving the peptide analogue (91k>A) had EAE.

multiple sclerosis = conditions: human, in vivo; cited from earlier work

Molecule | EAE Incidence (EAE) | EAE Mean Maximum Clinical Score (EAE) | patients with a clinical exacerbation within one month after initiation of treatment (multiple sclerosis) | specific response to MBP (in words) (multiple sclerosis)
MBP(68-88): EAE-inducing myelin basic protein peptide from a different region (KRTADPKNAWQDAHPADPGSR; UniProt P02686 68-88, looked up, fragment) [reference compound] | 6/6 | 3 ± 0 |  | 
IFN-γ: cytokine administered to MS patients in a pilot study (protein, UniProt P01579 24-161, looked up) Interferon gamma: QDPYVKEAENLKKYFNAGHSDVADNGTLFLGILKNWKEESDRKIMQSQIVSFYFKLFKNFKDDQSIQKSVETIKEDMNVKFFNSNKKKRDDFEKLTNYSVTDLNVQRKAIHELIQVMAELSPAAKTGKRKRSQMLFRG |  |  | 7 of 18 | increase
